These results are taken from patent US10709761B2, “Methods and compositions for preventing or treating cancer” (UNIVERSITY OF UTAH RESEARCH FOUNDATION, priority 2015, dated 2020).

Series [1] deals with African elephant lymphocytes. Briefly: Annexin V / propidium iodide apoptosis after doxorubicin, elephant lymphocytes. The format is cell-based. The settings on record: 5 μM doxorubicin, 18 and 24 hours. The procedure: Ionizing radiation (0.5, 2, 5, 6, 10, and 20 Gy) or doxorubicin (0.005-30 μM) were used to induce DNA damage in the cultured primary PBLs, which were then evaluated for signs of apoptosis, DNA repair efficiency, and cell cycle arrest. Apoptosis was evaluated by measuring the number of cells that stained for Annexin V (AV) and propidium iodide (PI); cells were categorized as being in late apoptosis if they were AV+PI+, and in early apoptosis if they were AV+PI−. Apoptosis was also measured either using APO-TOX GLO™ (Promega, Madison, Wis.) or CASPASE-GLO® 3/7 Assay (Promega) and […]-GLO® (Promega). The results were normalized to cell viability either using counts from the MULTI-TOX-FLUOR™ assay (Promega) included with APO-TOX GLO™, or using […]-GLO® when caspase activity was measured. Statistically significant differences in apoptosis were calculated in […] PRISM®.

Another series relates to elephant fibroblasts. Briefly: Caspase 3/7 cleavage after doxorubicin, elephant fibroblasts. The format is cell-based, African elephant. Particulars: 10 μM and 30 μM doxorubicin.
The next series concerns human fibroblasts. The experiment in a line: Caspase 3/7 cleavage after doxorubicin, human fibroblasts. The format is cell-based. The settings on record: 10 μM and 30 μM doxorubicin.
Series [2] has as its system U-2OS cells. Briefly: U-2OS cell viability after doxycycline induction. The format is cell-based, human. The settings on record: 72 hours after induction with doxycycline. Here is the method:
U-2OS cells were also transfected with EP53^anc (SEQ ID NO: 2) and human TP53, and the cell viability after induction with doxycycline was observed after 72 hours.

Series [3] relates to U-2OS cells. Briefly: U-2OS caspase activity after doxycycline induction. Particulars: after induction with doxycycline. The format is cell-based, human.
Series [4] has as its system p53 target genes, p21 and MDM2. The experiment in a line: Western blot of p53 pathway proteins in U-2OS cells expressing EP53^anc. It is filed as cell-based, human. Here is the method: For tetracycline inducible cells, the cells were treated with doxycycline for 24-48 hours prior to treatment with MG132 or doxorubicin. After the induction of DNA damage, the cells were harvested and pelleted. The cell pellets were frozen, and then lysed in cell lysis buffer containing phosphatase and protease inhibitors. The cell lysates were run on SDS-PAGE protein gels, and then transferred to PVDF membranes (western blots). The membranes were blocked, and then probed with primary antibodies to determine the p53 protein levels. The blots were probed with secondary HRP-conjugated antibodies, and the protein levels were detected using a substrate and a chemiluminometer. GAPDH was used as a loading control for each western blot. The blots were also probed for phosphorylated EP53^r at the serine-15 residue (phospho-EP53^r). DNA damage induces the phosphorylation of p53, which reduces the interaction of this protein with its negative regulator, mouse double minute 2 (MDM2) (Milczarek et al. Life Sci; 60: 1-11 (1997)).
(§1) U-2OS cells were also transduced with EP53^anc (SEQ ID NO: 2). These cells were then induced to express EP53^anc (SEQ ID NO: 3), and treated with doxorubicin to trigger DNA damage.
Background: In western blotting, separated proteins are transferred to a membrane and probed.

Series [5] has as its system U-2OS cells. The experiment in a line: Caspase activity / apoptosis in U-2OS cells expressing EP53 genes. It is filed as cell-based, human. The settings on record: compared to empty vector. The procedure: U-2OS cells were transfected with EP53^r5 (SEQ ID NO: 12) or EP53 ancestral (EP53^anc) (SEQ ID NO: 2), and then treated with doxycycline to induce EP53^r expression. The cells were then treated with doxorubicin to damage the DNA.
as §1

Setting [6] is: U-2OS induced to express, doxorubicin-treated.

As for `COc1cccc2c1C(=O)c1c(O)c3c(c(O)c1C2=O)C[C@@](O)(C(=O)CO)C[C@@H]3O[C@H]1C[C@H](N)[C@H](O)[C@H](C)O1` [doxorubicin], the “early apoptosis (AV+PI−)” value in series [1] was “significant increase”. In addition, the “late apoptosis (AV+PI+)” value in series [1] is recorded as “significant increase”. Also, the “caspase 3/7 cleavage” value in the series with elephant fibroblasts is 9.1 fold increase; in the series on human fibroblasts, 2.24 fold increase.

B1: EP53^anc: ancestral elephant TP53 gene (SEQ ID NO: 2) encoding elephant p53 protein (SEQ ID NO: 3), expressed from vector in cells (protein, listed as Loxodonta africana)
chain: MEEPQSDLSTELPLSQETFSYLWELLPENPVLSPTLPPAVEVMDDLLLSEDTANWLESQVEAQGMSTTPAPATPTPVAPAPATSWTLSSSVPSQKTYPGTYGFRLGFLHSGTAKSVTCTYSPDLNKLFCQLAKTCPVQLWVASPPPPGTRVRTMAIYKKSEHMTEVVKRCPHHERCSDSSDGLAPPQHLIRVEGNLRAEYLEDSITLRHSVVVPYEPPEVGSDCTTIHFNFMCNSSCMGGMNRRPILTIITLEDSSGNLLGRNSFEVRICACPGRDRRTEEENFHKKGEPCPEPPPPGRSTKRALPTNTSSSTQPKKKPLDEEYFTLQIRGRERFKMFLELNEALELKDAQAGKEPEGSRAHSSPSKSKKGQSTSRHKKPMFKREGPDSD
Usually cell viability stands for the share of living cells, or the viability signal relative to a control. High values mean less harm to the cells, low ones more harm to the cells. The molecule B1 had a cell viability with U-2OS cells [2] of 35.6%. The molecule also registered a caspase activity in the series on U-2OS cells [3] of 14.22%. Moreover, the “endogenous human p53 expression” value in series [4] (U-2OS cells expressing EP53^anc) is recorded as “less”. Further, the “p53 target genes, p21 and MDM2 (western blot)” value in series [4] (setting [6]) is recorded as “increase”. The “increase in caspase activity” value in the series on U-2OS cells [5] (setting [6]) is given as 20 fold. Moreover, the apoptosis result in the series with U-2OS cells [5] (U-2OS, absence of doxorubicin treatment) was “significant apoptosis”.
